Reference: PMC10397247
One block for each binder: values may come before it.

Assays:
[1] = target: T1, 4H319-bN; test: two-hybrid library CCNG1;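 further: natural log of median RNA to DNA barcode read ratio; higher means stronger binding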
T1 chain: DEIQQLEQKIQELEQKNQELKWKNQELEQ

[2] = target: T2, 4H2588-bN; test: two-hybrid library CCNG1;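 further: natural log of median RNA to DNA barcode read ratio; higher means stronger binding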
T2 chain: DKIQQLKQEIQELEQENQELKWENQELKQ

[3] = target: T3, 4H121-bN; test: two-hybrid library CCNG1;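 further: natural log of median RNA to DNA barcode read ratio; higher means stronger binding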
T3 chain: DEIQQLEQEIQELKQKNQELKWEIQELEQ

[4] = target: T4, 4H2839-bN; test: two-hybrid library CCNG1;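 further: natural log of median RNA to DNA barcode read ratio; higher means stronger binding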
T4 chain: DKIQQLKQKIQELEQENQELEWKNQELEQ

[5] = target: T5, 4H492-bN; test: two-hybrid library CCNG1
T5 chain: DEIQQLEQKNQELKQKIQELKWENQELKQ

[6] = target: T6, 4H2915-bN; test: two-hybrid library CCNG1
T6 chain: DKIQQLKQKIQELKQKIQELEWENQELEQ

[7] = target: T7, 4H2503-bN; test: two-hybrid library CCNG1
T7 chain: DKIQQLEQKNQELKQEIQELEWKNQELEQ

[8] = target: T8, 4H3057-bN; test: two-hybrid library CCNG1
T8 chain: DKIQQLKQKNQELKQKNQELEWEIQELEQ

[9] = target: T9, 4H182-bN; test: two-hybrid library CCNG1
T9 chain: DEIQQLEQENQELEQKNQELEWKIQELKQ

[10] = target: T10, 4H2692-bN; test: two-hybrid library CCNG1
T10 chain: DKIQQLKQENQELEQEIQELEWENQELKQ

[11] = target: T11, 4H2143-bN; test: two-hybrid library CCNG1
T11 chain: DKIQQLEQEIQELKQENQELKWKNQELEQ

[12] = target: T12, 4H3974-bA; test: two-hybrid library CCNG1
T12 chain: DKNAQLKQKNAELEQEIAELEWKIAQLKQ

[13] = target: T13, 4H2473-bN; test: two-hybrid library CCNG1
T13 chain: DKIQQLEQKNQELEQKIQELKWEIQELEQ

[14] = target: T14, 4H40-bN; test: two-hybrid library CCNG1
T14 chain: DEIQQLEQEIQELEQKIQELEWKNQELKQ

[15] = target: T15, 4H2438-bN; test: two-hybrid library CCNG1
T15 chain: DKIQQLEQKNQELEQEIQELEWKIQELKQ

[16] = target: T16, 4H3277-bN; test: two-hybrid library CCNG1
T16 chain: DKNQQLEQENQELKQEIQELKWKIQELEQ

[17] = target: T17, 4H348-bN; test: two-hybrid library CCNG1
T17 chain: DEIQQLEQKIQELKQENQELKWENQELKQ

[18] = target: T18, 4H2134-bN; test: two-hybrid library CCNG1
T18 chain: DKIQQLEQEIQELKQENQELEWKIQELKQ

[19] = target: T19, 4H741-bN; test: two-hybrid library CCNG1
T19 chain: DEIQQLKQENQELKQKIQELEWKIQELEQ

[20] = target: T20, 4H2223-bN; test: two-hybrid library CCNG1
T20 chain: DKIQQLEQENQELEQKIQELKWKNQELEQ

[21] = target: T21, 4H477-bN; test: two-hybrid library CCNG1
T21 chain: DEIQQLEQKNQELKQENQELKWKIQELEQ

[22] = target: T22, 4H2717-bN; test: two-hybrid library CCNG1
T22 chain: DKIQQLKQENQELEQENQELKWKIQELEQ

[23] = target: T23, Core_IINI-es_KKKE; test: two-hybrid library CCmax; conditions: mean of both orientations
T23 chain: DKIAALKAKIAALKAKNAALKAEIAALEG

[24] = target: T24, Core_IIII-es_KKEE; test: two-hybrid library CCmax; conditions: mean of both orientations
T24 chain: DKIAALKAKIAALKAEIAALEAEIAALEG

[25] = target: T25, Core_INNN-es_KEKK; test: two-hybrid library CCmax; conditions: mean of both orientations
T25 chain: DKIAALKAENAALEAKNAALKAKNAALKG

[26] = target: T26, P4S-Cys; test: two-hybrid library CCNG1; conditions: mean of both orientations
T26 chain: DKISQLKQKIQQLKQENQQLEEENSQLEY

B1: 4H121-bN (peptide)
chain: DEIQQLEQEIQELKQKNQELKWEIQELEQ
- interaction score [1]: -1.04
- interaction score [2]: -0.5
- interaction score [3]: -0.707
- interaction score [4]: -0.184
- interaction score [5]: -1.42
- interaction score [6]: -0.211
- interaction score [7]: -1.29
- interaction score [8]: -1.3
- interaction score [9]: -0.748
- interaction score [10]: -1.02
- interaction score [11]: -0.718
- interaction score [12]: 1.19
- interaction score [13]: -0.436
- interaction score [14]: -0.563
- interaction score [15]: 1.48
- interaction score [16]: -1.33
- interaction score [17]: -0.398
- interaction score [18]: 1.52
- interaction score [19]: -1.39
- interaction score [20]: -0.986
- interaction score [21]: -1.35
- interaction score [22]: -0.302

B2: Core_IINI-es_EEEK (peptide)
chain: DEIAALEAEIAALEAENAALEAKIAALKG
- interaction score [23]: 2.3

B3: Core_IIII-es_EEKK (peptide)
chain: DEIAALEAEIAALEAKIAALKAKIAALKG
- interaction score [24]: 1.78

Now from value to binder:

- interaction score [25]: 1.91
B4: Core_INNN-es_EKEE (peptide)
chain: DEIAALEAKNAALKAENAALEAENAALEG

- interaction score [26]: 1.92
B5: Cys-P3S (peptide)
chain: DEIQQLEEEISQLEQKNSQLKEKNQQLKY
